Entries after “also recorded” stand apart in the source; their conditions may differ.
Legend:
[1] = Determination of the aggregative character of the peptides by sedimentation; format: physicochemical; settings: sedimentation, Garnier-Delamarche representation
Procedure: (§1) After thawing, a pre-dilution in milli Q H2O filtered through 0.2 μm was carried out in order to obtain a solution at a concentration close to the working concentration, greater than 1.25 times. This stock solution was left to incubate for 1 hour in a water bath at 25° C., and was then assayed spectrophotometrically and adjusted to the final working concentration of 1.25 times. The polymerization was initiated by adding ¼ of the volume of 5× fibrillation buffer (50 mM MOPS, 750 mM NaCl, pH=7.2) for a final concentration of 1× fibrillation buffer (10 mM MOPS, 150 mM NaCl, PH=7.2). The samples were left to incubate for 1.5-2 hours at 25° C. in a water bath. The study of the polymerization by fluorimetry was carried out under the same conditions, except that the 5× polymerization buffer was supplemented with Thioflavin T (ThT) at 100 μM in order to be able to observe the fluorescence. • (a) Determination of the Aggregative Character of the Peptides. Once polymerized, the samples were ultracentrifuged at 100,000 g for 5 minutes at 25° C. (Beckman TL100, rotor TL-A100). The supernatants of each sample were then collected. An assay at 280 nm in triplicate of each supernatant was then carried out in the presence of 1% SDS. The concentration of the supernatant was determined using the Beer-Lambert law A=ε×1×C; ε (peptides)=1450 M^−1cm^−1. The concentration of sedimentable species in the pellet was then deduced by the difference: “total concentration of the sample—concentration of free peptide present in the supernatant”. • (b) Determination of the Amyloidogenic Character of the Peptides. Once the peptides have polymerized as previously indicated, 40 μL of peptides polymerized at a concentration of 400 μM and 800 μM were diluted in 360 μL of Thioflavin T (10 μM ThT, 1×MOPS) in a thermostatically controlled tank of 0.2×1 cm, to a final volume of 400 μL. The fluorescence of the sample was then measured immediately after dilution by recording a fluorescence spectrum (470 nm to 600 nm) at an excitation wavelength of 450 nm (Perkin Elmer LS 55, PM 750, slit10).
(§2) After prediction of their amyloidogenic character by bioinformatics, all the peptides were studied using biochemical techniques, namely sedimentation and fluorescence/ThT. The biochemical experiments were carried out at two peptide concentrations: 400 μM and 800 μM. Only the results obtained at 800 μM are presented. At this concentration, in sedimentation, the amount of sedimentable peptide after polymerization was measured and expressed as a percentage as a function of the total concentration. This value corresponds to the aggregative character of the peptides. On the other hand, the fluorescence test was used to determine their amyloidogenic character, the fluorescence value given corresponds to a normalization with respect to 1p, considering that its fluorescence is 100% (Table 4).

[2] = Determination of the amyloidogenic character of the peptides by Thioflavin T fluorescence; format: physicochemical; settings: ThT fluorescence, Garnier-Delamarche representation
Procedure: as §1, §2

[3] = target: T1, PHF6 peptide (VQIVYK, 1p) (Homo sapiens, UniProt P10636); test: Effects of the derived peptides on VQIVYK polymerization by spectrofluorimetry (ThT kinetics); format: biochemical
T1 construct: The polymerization of VQIVYK was initiated by adding ¼ of the volume of fibrillation buffer 5×

[4] = Polymerization kinetics of selected peptide alone (ThT spectrofluorimetry); format: physicochemical; settings: 310 μM, ThT fluorescence
Procedure: After thawing, a pre-dilution of the peptides of interest in sterile water was carried out in order to obtain, for each peptide, a solution at a concentration close to the working concentration. The peptides were then left to incubate at 4° C. overnight. On the day of the experiment, the peptide solutions were sonicated for 10 minutes, left to stand for one hour at room temperature, sonicated again for 10 minutes and assayed spectrophotometrically at 280 nm (8=1450 M^−1cm^−1). The UV spectra were previously normalized to 0 at 300 nm. The solutions were prepared at concentrations of peptides ¼ above that desired in the end. The polymerization of VQIVYK was initiated by adding ¼ of the volume of fibrillation buffer 5× for a final concentration of fibrillation buffer 1× (10 mM MOPS, 150 mM NaCl, pH=7.2).
The analyses were carried out on a spectrofluorometer (LS 55 from Perkin Elmer) fitted with a 4-cell rack. Black quartz cells (0.2×1.0 cm) were used. […]
The results were first smoothed over 10 points with the “smooth” option of the KaleidaGraph software. […] Finally, the results of each kinetics were normalized relative to the fluorescence intensity of the 1p control after 100 minutes of polymerization considered to be 100%.

[5] = test system: cells of the neuroblastoma line SH-SY5Y; test: Growth of SH-SY5Y neuroblastoma cells (images); format: cell-based; settings: 100 μM, 24 hours, 1×DMEM medium, 8% serum
Procedure: The effects of three hexapeptides classified as “therapeutic” (1tp, 4tp, 6tp) and of two peptides classified as “amyloid” (7tp and 1p) on the growth of cells of the neuroblastoma line SH-SY5Y were studied after 24 hours of treatment in the presence of a hexapeptide at a concentration of 100 μM in 1×DMEM medium, 8% serum. The results obtained are presented on FIG. 10(A).

Question: Which “aggregative character (in words)” value [1] does the source give for YQIVVK (Ac-YQIVVK-NH2) [6tp] here?
Answer: weakly aggregative

Question: And the “amyloidogenic character (in words)” value [2]?
Answer: weakly amyloidogenic

Question: And the “category of polymerization kinetics of 1p in the presence of peptide” value ([3]; [1p]=155 μM, [selected peptide]=310 μM)?
Answer: slow compared to 1p alone and which have a lower fluorescence intensity

Question: What about the “inhibitory effect on 1p (PHF6) polymerization (in words)” value ([3]; [1p]=155 μM, [selected peptide]=310 μM, thresholds 50% rate, 100% fluorescence intensity) of the same substance?
Answer: clearly inhibited; also recorded: marked inhibitory effect; also recorded: with a strong inhibitory effect

Question: And the “inhibitory effect over longer times” value ([3]; polymerization followed for 15 hours)?
Answer: the inhibitory effect persisted

Question: And the “polymerization of the peptide on its own” value [4]?
Answer: do not polymerize on their own

Question: And the “effect on cell growth (number and appearance of cells)” value [5]?
Answer: did not seem to have any effect
